Results on 167 variants are retold here after the RNAGym collection of RNA variant scans (doi:10.7554/elife.80360).

Sequences and labels used below:
B1: CPEB3 Ribozyme (parent)
chain: GGGGGCCACAGCAGAAGCGUUCACGUCGCGGCCCCUGUCAGAUUCUGGUGAAUCUGCGAAUUCUGCUGU

In this data set the parent is B1. As to the kind of experiment: self-cleavage, relative activity (ratio to wild type); higher = more cleavage; co-transcriptional.
Take G17C G31U: the self-cleavage amounted to 0.103. G17C G31C: the self-cleavage was found to be 0.14. On to G17A G41A, for which the self-cleavage was 0.133. As for G17A G41U, the self-cleavage amounted to 0.183. Then G17A G41C, with 0.141; and G17C A59U, with 0.0945.

On to G17A G47A, for which the self-cleavage came to 0.541. On to G17A G47C, for which the self-cleavage came to 0.641.

With G17A C57U, the self-cleavage was determined as 0.197. Turning to G17A C57A, the self-cleavage is 0.145. The value for G17A C57G was 0.227; that for A16G G65C was 0.446; that for G17A U49G was 0.444. For the variant G17A U49A, the self-cleavage amounted to 0.611. In the case of G17A U49C, the self-cleavage is 0.486. A16U U20A: the self-cleavage was 0.124. Take A16U U20C: the self-cleavage is 0.196. The value for A16U G47A was 0.893; that for G17A A42U was 0.314. The value for G17A A42C was 0.253; that for G17C C63U was 0.139. In the case of G17C C63G, the self-cleavage came out at 0.103. Regarding A16U C63G, the self-cleavage was 0.361. On to A16U A42G, for which the self-cleavage worked out at 0.739. Then A16U A42C, with 0.746; and A16U G19A, with 0.13. The value for A16U G19U was 0.164; that for A16U G58C was 0.756. Then A16U G58A, with 0.866; and A16G G68C, with 0.981. With A16G G68U, the self-cleavage amounted to 0.956. Then A16U G30A, with 0.22. Then A16U G30C, with 0.189. Then G17A U21C, with 0.169. Turning to G17A U21G, the self-cleavage was 0.128.

As for G17A U21A, the self-cleavage was determined as 0.384. Then G17A C66A, with 0.226. As for G17A C66G, the self-cleavage came to 0.233. With G17A C66U, the self-cleavage worked out at 0.347.

As to G17C G47C, the self-cleavage worked out at 0.212. The value for A16U U26A was 0.221; that for A16U U26C was 0.812; that for G17A U44A was 0.397. Then G17A U44C, with 0.255. As for G17A U44G, the self-cleavage was found to be 0.302. The value for A16G U44A was 0.835; that for G17A U55G was 0.16. Then A16U G31A, with 0.482. The value for G17C A40C was 0.16; that for G17C A40U was 0.14.

With G17C A40G, the self-cleavage came to 0.124.

Regarding G17C C54A, the self-cleavage is 0.1.

G17C C54G: the self-cleavage came out at 0.166. Then G17A A23U, with 0.585; and G17A A23G, with 0.243.

Take G17A A23C: the self-cleavage turned out to be 0.483. As for G17A G50C, the self-cleavage is 0.387. Then G17A G50U, with 0.547. The value for G17A G50A was 0.488; that for A16U A40G was 0.754. Then A16U U46C, with 0.874; and A16U U55G, with 0.335; and A16G G48U, with 0.974. For A16G G48A, the self-cleavage turned out to be 0.964. The value for A16G G48C was 0.892. G17A A51C: the self-cleavage worked out at 0.452. The value for G17A A51G was 0.455. Take A16U U36C: the self-cleavage came out at 0.438.

With A16U U36A, the self-cleavage turned out to be 0.166.

For the variant A16U G48C, the self-cleavage came out at 0.889.

As for A16U G48A, the self-cleavage came to 0.862. The value for G17C G30A was 0.154; that for G17C G30C was 0.134; that for G17C G30U was 0.206. The value for A16U G17A was 0.203; that for A16U G17U was 0.147.

Turning to G17C G28A, the self-cleavage amounted to 0.127. Turning to G17C G28C, the self-cleavage came to 0.129. For G17C G28U, the self-cleavage was 0.111. Then A16U A52G, with 0.888; and A16G G58C, with 0.95.

For G17C G25A, the self-cleavage turned out to be 0.15. As to G17C G25C, the self-cleavage worked out at 0.12. G17C G25U: the self-cleavage amounted to 0.107. A16G U20A: the self-cleavage turned out to be 0.129. Consider A16G U20C, for which the self-cleavage was 0.159. The value for A16G U20G was 0.155; that for A16U C34G was 0.353. Then A16U C34U, with 0.892. On to A16U C34A, for which the self-cleavage was 0.4.

As for A16G G28C, the self-cleavage is 0.0652.

Turning to A16U C35A, the self-cleavage amounted to 0.159.

For A16U C35G, the self-cleavage stood at 0.213.

As to A16U C35U, the self-cleavage is 0.768. In the case of G17A C33U, the self-cleavage stood at 0.43.

For the variant G17C G58U, the self-cleavage was 0.227. Then G17C G58C, with 0.198; and G17C G58A, with 0.139. The value for G17C C22G was 0.156; that for G17C C22A was 0.117; that for A16G G31U was 0.309.

For A16G G31C, the self-cleavage is 0.147. On to A16G G31A, for which the self-cleavage turned out to be 0.527. Then G17C A23G, with 0.116.

For the variant G17C A23U, the self-cleavage is 0.103. The value for G17C A23C was 0.178. Take G17A C18G: the self-cleavage worked out at 0.147. For G17A C18A, the self-cleavage was found to be 0.116.

G17C A52U: the self-cleavage is 0.133. Consider G17C A52G, for which the self-cleavage was determined as 0.196.

For A16G U43A, the self-cleavage stood at 0.784. Then A16G U43C, with 0.791. Then G17C G48U, with 0.194; and G17C G48C, with 0.158; and A16U C22A, with 0.12. Then A16U A23G, with 0.528; and A16U A23U, with 0.867. Consider A16U A51U, for which the self-cleavage amounted to 0.853. Then A16U A51G, with 0.841; and G17A U38G, with 0.11. Take G17A U38C: the self-cleavage was 0.314.

For the variant A16U C45A, the self-cleavage came to 0.842.

As for G17A G30A, the self-cleavage stood at 0.164.

Turning to G17A G30U, the self-cleavage is 0.176.

Take A16U U49A: the self-cleavage was found to be 0.96. The value for A16U U49C was 0.834; that for A16U U49G was 0.817.

Consider G17A U36G, for which the self-cleavage was found to be 0.117. As for G17A U36A, the self-cleavage was 0.0937. Turning to G17A U36C, the self-cleavage was 0.225. Then G17A U62C, with 0.193; and G17A U62G, with 0.198.

Take A16U U69A: the self-cleavage worked out at 0.923.

Consider A16U U69C, for which the self-cleavage stood at 1.02. Then G17C C34A, with 0.18; and G17C C34U, with 0.174.

Take G17C C34G: the self-cleavage came out at 0.157. Then G17A U46C, with 0.417. On to A16U C66A, for which the self-cleavage was found to be 0.427. Then A16U C66U, with 0.785; and A16U C66G, with 0.356. Regarding A16G U49G, the self-cleavage came out at 0.979. Take A16U U43G: the self-cleavage is 0.395. The value for A16U U43A was 0.615; that for G17A C63A was 0.171; that for G17A C63G was 0.257. Then A16G U38C, with 0.665. Then A16G U38A, with 0.767; and G17A C35G, with 0.179; and G17A C35A, with 0.136. In the case of A16U C39A, the self-cleavage came to 0.317. The value for A16U C39G was 0.693.

For A16U C39U, the self-cleavage amounted to 0.533.

For G17C G37A, the self-cleavage stood at 0.0971. With G17C G37C, the self-cleavage stood at 0.0977. The value for G17A C39U was 0.213. The value for G17A C39A was 0.201. Regarding G17A C39G, the self-cleavage was 0.216. Then G17C C39G, with 0.115. On to G17C C39A, for which the self-cleavage was determined as 0.081.

As for G17C C33U, the self-cleavage is 0.139. Consider G17C C33A, for which the self-cleavage was 0.152. A16U G56U: the self-cleavage was found to be 0.624. For A16U G56C, the self-cleavage came to 0.82. Then A16U G56A, with 0.616. For G17C C18U, the self-cleavage stood at 0.169. The value for A16U G65A was 0.442.
